Assay results reported in paper PMC7166090, “A bacteriophage mimic of the bacterial nucleoid-associated protein Fis” (Biochemical Journal, 2020).

T1: His-NinH K35A (Bacteriophage lambda (cI857 Sam7), UniProt P03771 1-68, A15T;K35A)
T1 sequence: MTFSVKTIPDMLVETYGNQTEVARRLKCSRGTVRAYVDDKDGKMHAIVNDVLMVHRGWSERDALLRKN

T2: His-NinH wt (Bacteriophage lambda (cI857 Sam7), UniProt P03771 1-68, A15T)
T2 sequence: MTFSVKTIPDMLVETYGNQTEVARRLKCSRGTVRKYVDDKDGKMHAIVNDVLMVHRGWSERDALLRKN

T3: His-NinH S29A (Bacteriophage lambda (cI857 Sam7), UniProt P03771 1-68, A15T;S29A)
T3 sequence: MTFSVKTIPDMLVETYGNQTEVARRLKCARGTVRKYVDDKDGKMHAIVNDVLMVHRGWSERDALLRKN

T4: His-NinH R56A (Bacteriophage lambda (cI857 Sam7), UniProt P03771 1-68, A15T;R56A)
T4 sequence: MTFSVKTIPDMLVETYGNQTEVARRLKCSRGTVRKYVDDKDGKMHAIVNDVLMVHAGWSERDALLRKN

T5: His-NinH T32A (Bacteriophage lambda (cI857 Sam7), UniProt P03771 1-68, A15T;T32A)
T5 sequence: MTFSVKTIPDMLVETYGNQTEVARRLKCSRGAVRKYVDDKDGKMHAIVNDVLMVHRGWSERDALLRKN

T6: His-NinH H45A (Bacteriophage lambda (cI857 Sam7), UniProt P03771 1-68, A15T;H45A)
T6 sequence: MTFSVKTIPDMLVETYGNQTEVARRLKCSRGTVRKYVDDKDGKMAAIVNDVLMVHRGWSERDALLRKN

T7: His-NinH N18A (Bacteriophage lambda (cI857 Sam7), UniProt P03771 1-68, A15T;N18A)
T7 sequence: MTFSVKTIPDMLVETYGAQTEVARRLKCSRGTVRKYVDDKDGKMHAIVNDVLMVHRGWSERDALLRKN


Experiments:
[1] = molecular target: T1, His-NinH K35A; assay: MST; MST: PBS pH 7.4 + 0.05% Tween-20, 22 C; anisotropy: 6.7 mM Tris-HCl pH 8.0, 3.3 nM (so in the source) sodium acetate, 2 mM EDTA, 25 C; EMSA (32P): 50 mM Tris-HCl pH 8.0, 5 mM EDTA, 1 mM DTT, 5% glycerol, 100 ug/ml BSA, on ice; EMSA (Cy520): PBS pH 7.4, room temp; settings: protein: recombinant; tags: N-His6; chain copies: 2; label: 5'-Cy5 on strand 1; blunt
[2] = molecular target: T2, His-NinH wt; assay: as above; settings: protein: recombinant; tags: N-His6; chain copies: 2; label: 5'-Cy5 on strand 1; blunt
[3] = molecular target: T3, His-NinH S29A; assay: as above; settings: protein: recombinant; tags: N-His6; chain copies: 2; label: 5'-Cy5 on strand 1; blunt
[4] = molecular target: T4, His-NinH R56A; assay: as above; settings: protein: recombinant; tags: N-His6; chain copies: 2; label: 5'-Cy5 on strand 1; blunt
[5] = molecular target: T5, His-NinH T32A; assay: as above; settings: protein: recombinant; tags: N-His6; chain copies: 2; label: 5'-Cy5 on strand 1; blunt
[6] = molecular target: T6, His-NinH H45A; assay: MST; retained significant binding; MST: PBS pH 7.4 + 0.05% Tween-20, 22 C; anisotropy: 6.7 mM Tris-HCl pH 8.0, 3.3 nM (so in the source) sodium acetate, 2 mM EDTA, 25 C; EMSA (32P): 50 mM Tris-HCl pH 8.0, 5 mM EDTA, 1 mM DTT, 5% glycerol, 100 ug/ml BSA, on ice; EMSA (Cy520): PBS pH 7.4, room temp; settings: protein: recombinant; tags: N-His6; label: 5'-Cy5 on strand 1; blunt
[7] = molecular target: T7, His-NinH N18A; assay: MST; intermediate effect; MST: PBS pH 7.4 + 0.05% Tween-20, 22 C; anisotropy: 6.7 mM Tris-HCl pH 8.0, 3.3 nM (so in the source) sodium acetate, 2 mM EDTA, 25 C; EMSA (32P): 50 mM Tris-HCl pH 8.0, 5 mM EDTA, 1 mM DTT, 5% glycerol, 100 ug/ml BSA, on ice; EMSA (Cy520): PBS pH 7.4, room temp; settings: protein: recombinant; tags: N-His6; chain copies: 2; label: 5'-Cy5 on strand 1; blunt
[8] = molecular target: T2, His-NinH wt; assay: EMSA; sub-micromolar; PBS; MST: PBS pH 7.4 + 0.05% Tween-20, 22 C; anisotropy: 6.7 mM Tris-HCl pH 8.0, 3.3 nM (so in the source) sodium acetate, 2 mM EDTA, 25 C; EMSA (32P): 50 mM Tris-HCl pH 8.0, 5 mM EDTA, 1 mM DTT, 5% glycerol, 100 ug/ml BSA, on ice; EMSA (Cy520): PBS pH 7.4, room temp; settings: protein: recombinant; tags: N-His6; chain copies: 2; label: 5'-Cy5 on strand 1; blunt
[9] = molecular target: T2, His-NinH wt; assay: EMSA; assembles on each arm; MST: PBS pH 7.4 + 0.05% Tween-20, 22 C; anisotropy: 6.7 mM Tris-HCl pH 8.0, 3.3 nM (so in the source) sodium acetate, 2 mM EDTA, 25 C; EMSA (32P): 50 mM Tris-HCl pH 8.0, 5 mM EDTA, 1 mM DTT, 5% glycerol, 100 ug/ml BSA, on ice; EMSA (Cy520): PBS pH 7.4, room temp; settings: protein: recombinant; tags: N-His6; chain copies: 2; label: 5'-32P on strand 1; four-way junction, 11 bp homologous core

| Binder | binding result [1] | Kd [2] | Kd [3] | binding result [4] | binding result [5] | Kd [6] | Kd [7] | Kd [8] | binding result [9] |
| --- | --- | --- | --- | --- | --- | --- | --- | --- | --- |
| Cy520 (NinH consensus) (dsDNA) DNA 1: ACCGATCAAGAATTGTGCAT DNA 2: ATGCACAATTCTTGATCGGT | no binding | 5.6 ± 1.5 nM | 13 ± 2.7 nM | no binding | no binding | > 350 nM | > 220 nM | < 1000 nM | – |
| Holliday junction HJ (structured_DNA) DNA 1: GGCGACGTGATCACCAGATGATTGCTAGGCATGCTTTCCGCAAGAGAAGC DNA 2: GGCTTCTCTTGCGGAAAGCATGCCTAGCAATCCTGTCAGCTGCATGGAAC DNA 3: GGTTCCATGCAGCTGACAGGATTGCTAGGCTCAAGGCGAACTGCTAACGG DNA 4: ACCGTTAGCAGTTCGCCTTGAGCCTAGCAATCATCTGGTGATCACGTCGC | – | – | – | – | – | – | – | – | binds |
